Laboratory results from paper PMC8231724, “A Glycolipid Glycosyltransferase with Broad Substrate Specificity from the Marine Bacterium “Candidatus Pelagibacter sp.” Strain HTCC7211” (Applied and Environmental Microbiology, 2021).

Columns and labels:
Assay in all cases: LC-MS of glycolipid product, Hanes-Woolf plot
Type in all cases: biochemical, Candidatus Pelagibacter sp. HTCC7211
Conditions in all cases: acceptor C16:0/C18:1 DAG, no added Mg2+, Tricine-KOH pH 8.5, 35 °C, 2 mM DTT
[1] = substrate: O=C(O)[C@H]1O[C@H](OP(=O)(O)OP(=O)(O)OC[C@H]2O[C@@H](n3ccc(=O)[nH]c3=O)[C@H](O)[C@@H]2O)[C@H](O)[C@@H](O)[C@@H]1O
Excerpt: (§1) LC-MS of glycolipid product, Hanes-Woolf plot on GTcp

[2] = substrate: O=c1ccn([C@@H]2O[C@H](COP(=O)(O)OP(=O)(O)O[C@H]3O[C@H](CO)[C@H](O)[C@H](O)[C@H]3O)[C@@H](O)[C@H]2O)c(=O)[nH]1
Excerpt: as §1

[3] = substrate: O=c1ccn([C@@H]2O[C@H](CO[P@@](=O)(O)O[P@@](=O)(O)O[C@H]3O[C@H](CO)[C@@H](O)[C@H](O)[C@H]3O)[C@@H](O)[C@H]2O)c(=O)[nH]1
Excerpt: as §1

B1: GTcp (Candidatus Pelagibacter sp. HTCC7211) (protein)
chain: MKILIVTDAYYPQVNGVVRTLHETGEILKSQGHTIEYITPQQFLTVPMPKYNEIRLSLNVWPRVSNLINSIKPDAIHIATEGPLGFMARRHCIKKGLKFTTSFHTRFDKYIKLYMPIIPAKWSEKFLCNFHNKAERILVTTESMREELIALGVDNNKMVTWTRGGNHGAFKNPVKRDLPYKRPIWIYVGRVAVEKNIKAFLDLDLEGTKVIIGKGPNLNKLKKKYPNDYFLGEKTNGELASHFASSDVFVFPSKTDTFGIVVLESLSCGTPVAAYPVPGPKDILGGSKIDTLDQDLKTSALKALKVNREDCLEFAKKYSWEETARIFYNNISPN
notes: full length, 334 aa (1,005 bp), codon-optimised synthetic gene in pET22b, His-tagged, E. coli BL21-CodonPlus(DE3)-RIL, Ni-NTA and Superdex 200, 38 kDa monomer, about 70 kDa dimer
Q: With B1 as the protein, how does the Km [1] read?
A: 68 ± 0.5 µM

Q: What about the kcat [1] of the same protein?
A: 0.0675 ± 0.00167 s⁻¹

Q: And the kcat/Km [1]?
A: 993 ± 60 M⁻¹ s⁻¹

Q: And the Km [2]?
A: 32 ± 0.4 µM

Q: What about the kcat [2] of the same protein?
A: 0.0172 ± 0.005 s⁻¹

Q: What about the kcat/Km [2] of the same protein?
A: 537 ± 48.3 M⁻¹ s⁻¹

Q: What about the Km [3] of the same protein?
A: 82 ± 0.3 µM

Q: And the kcat [3]?
A: 0.0975 ± 0.00667 s⁻¹

Q: And the kcat/Km [3]?
A: 1190 ± 45 M⁻¹ s⁻¹
